Assay: soluble on expression in E. coli; label from the status in PepcDB or PDB records

Sequence | soluble on expression in E. coli
MWRRYPQVEEKLGWYSRVMRGEEPPKYRIVRTFEVGFDSEDDIRRALTEELWREHERVAGEFRRLFRSLREGGSYEGDIKDARPSLMDVKVELVRRLASPCELCERRCRVERAKSRRGACRLAWEVYVHSAFLHLGEEAPLVPSGTIFYGGCNFTCVFCQNWDVSQWKARDAHIVTPRRLGEIQDRLAEAGARNINHVGGDPVPSLHVIVESMKYASHLKPQLWNSNMYMTLEALDILVDLIDIWLPDLKFGNDRCAMRLSAVPRYWEVTTRNILLAAEHGDMIIRHLVMPGHVECCTKPVLRWIAENLGDRVLVNIMDQYHPDNLVLRMPHKWPEIARRPSRREIEEAWRYAEQLGLDWEPVTK | not soluble
MWYRALFPGATWRIPAKEGKSIYLTFDDGPIPEITPWVLDTLDELGVKATFFCVADNVRRYPDLFAEIQRRGHQVGNHTFHHLQGLKVRTRTYLKDVEEADRLINSRFFRPPHGHLRFMQTLLLSNHYDIIMWDVITRDYNARLSPDTVFGSVVRYARNGSIITFHDSLKAAPNMQQAMPRAVRWLLDEGYTFKCLGDPAD | not soluble
MYAVTFDLDTNCLNENAVNLSKVYSDIRKFMEQHGFKWQQGSVYFGDETINAVTCVATVQILAKQIPSFAVCVKDVRMLKIEENNDLMPAIKIVL | not soluble
MYDWFSEMRKKDPVYYDGNIWQVFSYRYTKEVLNNFSKFSSDLTGYHERLEDLRNGKIRFDIPTRYTMLTSDPPLHDELRSMSADIFSPQKLQTLETFIRETTRSLLDSIDPREDDIVKKLAVPLPIIVISKILGLPIEDKEKFKEWSDLVAFRLGKPGEIFELGKKYLELIGYVKDHLNSGTEVVSRVVNSNLSDIEKLGYIILLLIAGNETTTNLISNSVIDFTRFNLWQRIREENLYLKAIEEALRYSPPVMRTVRKTKERVKLGDQTIEEGEYVRVWIASANRDEEVFHDGEKFIPDRNPNPHLSFGSGIHLCLGAPLARLEARIAIEEFSKRFRHIEILDTEKVPNEVLNGYKRLVVRLKSNE | soluble
MYEGESVVQLAKRMIEHLLKWGVTDAFTDKQIYTILEKAESTLKPLPAMLQVEHPITIVGDIHGQLDALIRYFDAVGYPPKVQFLFLGDYVDRGAKSFEVSLLLFCYKIRYPHLNVFNELPLCARVGQRILCMHGGISQNCNSWESFKALKKPNTPLTCDEGLQVDLMWADPTQDKCNTFAMNKQRAISVVFGQKGLDDFLKKLGLSLIVRAHEVSQEGFNFLFNKKCVTVFSAPYYCGNDTNCGAIMHVSDSYELSFTVLRPRMIATPENFEIVKLMENNYKGLMVASPDPNRGRHLQSADVPQPTPPSVQLVPPVTKPVEIKKQ | not soluble
MYEWLNALPKAELHLHLEGTLEPELLFALAERNRIALPWNDVETLRKAYAFNNLQEFLDLYYAGADVLRTEQDFYDLTWAYLQKCKAQNVVHVEPFFDPQTHTDRGIPFEVVLAGIRAALRDGEKLLGIRHGLILSFLRHLSEEQAQKTLDQALPFRDAFIAVGLDSSEVGHPPSKFQRVFDRARSEGFLTVAHAGEEGPPEYIWEALDLLKVERIDHGVRAFEDERLMRRLIDEQIPLTVCPLSNTKLCVFDDMSQHTILDMLERGVKVTVNSDDPAYFGGYVTENFHALQQSLGMTEEQARRLAQNSLDARLVK | not soluble
MYHWFALRSVPLVGNVLYRRLLDRFGSPEAVFRASDAELASVRGVSSAVAASIRGHDPRAFAESECERVRRAGVRIVTIRDPDYPPLLLQIADPPPYLYVKGDPTGLEPAVAVVGSRRATVYGRTVTARLAEDLARRGVAVVSGMARGIDTAAHQGALAGEGRTVGVLGCGIDVVYPPENRALFARVADRGALVSEFPLGMGPLAENFPRRNRIISGMCRGVLVVEAAERSGSLITAQMALDQGRDVFAIPGNITSSGSSGTNRLIREGAKLVAGVEDILEELVPRAAAAVAVAPPLPPLPAGEAALMAMFGADPLHIDEIIAKSALTVGEVSAMLLRLELKGVVTQLPGKFFHAN | not soluble
MYKDLEGKVVVITGSSTGLGKSMAIRFATEKAKVVVNYRSKEDEANSVLEEIKKVGGEAIAVKGDVTVESDVINLVQSAIKEFGKLDVMINNAGLENPVSSHEMSLSDWNKVIDTNLTGAFLGSREAIKYFVENDIKGTVINMSSVHEKIPWPLFVHYAASKGGMKLMTETLALEYAPKGIRVNNIGPGAINTPINAEKFADPEQRADVESMIPMGYIGEPEEIAAVAAWLASSEASYVTGITLFADGGMTLYPSFQAGRG | soluble
MYKIVTVKDVVRIPPRMFTMDPKEAAMLVLRDTYEGTYDRDEGVILSIVEVKEVGDGIIVPGDGATYHEVVFDVLVWEPKRDEVVEGTVVDVVPFGAFIRIGPMDGLVHISQLMDDYVVYDERNKQFVGKEKKYLLKIGDAVRARIITVSPKSRVIRENRIGLTMRQPGLGKFEWIEKEKRKEKEGKK | soluble
MYLAYYGFAEKPFQLKPDPNFFFPSRGHKRAAAYLEYGLSQEDGFIIITGDVGAGKTTLMRYLFQKLRQERVAAAQLVSTRLDPDDALRMVAAAFGLSYEGLSKAALLLELERFMRKCERESTRVLLVVDEAQNLLPQTLEELRMLSNFQSDNRPLLQTFLLGQPEFRRTLLGSQMQQLRQRVIATYHLGPLDQAETRAYIEHRLQKAGWNGSPVLQDEIFEVIHNFSAGIPRKINLFCDRLLIMGCLEELQTLGKAEANEVMLDIQKEFDLAVSPELEHHHHHH | soluble
MYLPDDSPAKRLLFQMVGNAINRNTQQLTQDLRAMPNWSLRFVYIVDRNNQDLLKRPLPPGIMVLAPRLTAKHPYDKVQDRNRKLYGRHITLNDGNSVKVVTISAGRDEGPDRDIIWEMFLENLEHHHHHH | soluble
MYLSHFGLEQLPFHLTPDTELFLGLAPHFEAIQTLSAAIEMGEGVSKLTGEVGTGKTMVCRMLLTHLGDEVALIYLPNPMLSGEELRQAVAAELQLDVASPVRVVEQIQTRLIELHQQGKRVVALVDEAQALSDEALETLRLFGNLETEQTKLLQIVLIGQPELDVRLAQHHLRQFRQRITFNANLRPLTQAETEVYIESRLQKAQAPYPLFNATLKKAVWRASQGIPRLINQICHKALLLAWHEQSPLVNQHHLFAAIHDTYDSCKPRFKTPILWGWSKP | not soluble
MYQAIAQAIIKSIMADEYPTKLPTEKVLMAQYNASRNTIRKAIDVVFRHGLLRRVQGSGNFIIKQPQNTKKVLNLSIGFDQSAMVDGGPLVSKVVTFDKVTADETLAQQGNIALGDEVYRVVRLRYLNDILYDLEESYFPRTVVPFLSSESVQHSIFAFLREAYGITGSTTENYVHQVRVDAQRAELIGCPDGDKTLCLEAINYLANGTVFNFSRTFFVYPDLELYYHTENIDLQN | not soluble
MYQEIKGVRVWGDPIENAVDQAVTCAQHGDVEQVLLMADHHKGYSQPVGGVVVYRNQISPSGVGYDIACGNKAVKTNVKYVDIKDQLSKIMDELAQSISFGVGRSNREKVEHDLFDDSDWSVYQEIGKQEHDNLKTLAKKQLGTVGSGNHFVDLFVEEATGDVWVANHFGSRGFGHKTASGFMNLAKGVKFSDKVKGERMEDAPTLLDLDSEIGDMYYRAMQLAGKYAYAGRDYVIQKVLDILQAEAVFSVHNHHNFAWKETHNGEEYVIVRKGATPSAPNQWGFIGGSMGDISVIVRGVDSEENRDAFYSTVHGAGRIMSRTEAAGKMNWKTRTRSGGKITPDQMKQAIKEYGVELRGGGTDESPFVYKNLADVLEAHKQTLSIEHVLKPIGVCMAGEGEFDPYKDMAGDPLEHHHHHH | soluble
MYQETKQFYHLWLLAVQERDEAREHLKQSLVELSRLQECFNTILLSEDQQIPHYSYSETTDETPDHQKLYSYNNFSNESPSRFSSASSIDLVSNSTVYSSPETYDSDCYSLRTLQMGFAFEEKKDFETLVLENIGLGRMLPENGKFQQAIIEAGSLVDSLFITGPIPKWRNPPVQMLSQRPLLSHSIGKWNYGGQGIINRSFSGKMPRLSLMP | soluble
MYRNLLNWLTILLVFPSCSGTSPTISVVCEENNVGNAIIKWETAPILKGQVKVYASTSPDFIPEENPVVTINIAKGKKTIVTNDPSQRYYYLMVFNNRYRVRVAARNVNIPGIQNFRDLGGYKSAETGKDTRWGMLYRSAQIDSIPFCSRRELKNMGIRTIIDLRSEEERHNYPQLHDEDFNVLHLPIATGNMEHILQDIRDKKIETDTIYRLVERMNRQLVTNYRKEYKELFTLLLDRNNYPVVIHCTSGKGRTGIVSALVLAALGVNEEAIMKDYRLSNDYFNIPKASRYAYKLPINSQEAITTIYSAKEDFLNAAKEQIDAEYGSVQAYLKKGIGLSAEEIERLRSILLIDNGLEHHHHHH | not soluble

Source: the DeepSol protein solubility set
